The values that follow are results of earlier work, collected in publication PMC6160412.

Read-outs that look alike come from different tables or passages of the source.

The target of this series is Neurexin-1β (+S4) (Mus musculus) (UniProt P0DI97). As to the kind of experiment: SPR. On the technique in general: In SPR one partner is held on a chip, and binding of the other changes the refractive index at the surface.
Sequence of Neurexin-1β (+S4) (Mus musculus) (P0DI97 47-392): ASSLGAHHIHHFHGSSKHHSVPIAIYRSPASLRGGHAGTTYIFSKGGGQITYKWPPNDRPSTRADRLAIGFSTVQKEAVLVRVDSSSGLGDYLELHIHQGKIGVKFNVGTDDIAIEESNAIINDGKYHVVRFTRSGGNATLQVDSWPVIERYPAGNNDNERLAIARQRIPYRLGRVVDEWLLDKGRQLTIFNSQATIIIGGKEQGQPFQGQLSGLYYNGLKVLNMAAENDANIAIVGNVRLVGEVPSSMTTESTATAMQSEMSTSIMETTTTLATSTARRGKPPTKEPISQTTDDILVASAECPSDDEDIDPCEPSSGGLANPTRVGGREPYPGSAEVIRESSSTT

Sequence of Neuroligin-1 (Q99K10 46-843): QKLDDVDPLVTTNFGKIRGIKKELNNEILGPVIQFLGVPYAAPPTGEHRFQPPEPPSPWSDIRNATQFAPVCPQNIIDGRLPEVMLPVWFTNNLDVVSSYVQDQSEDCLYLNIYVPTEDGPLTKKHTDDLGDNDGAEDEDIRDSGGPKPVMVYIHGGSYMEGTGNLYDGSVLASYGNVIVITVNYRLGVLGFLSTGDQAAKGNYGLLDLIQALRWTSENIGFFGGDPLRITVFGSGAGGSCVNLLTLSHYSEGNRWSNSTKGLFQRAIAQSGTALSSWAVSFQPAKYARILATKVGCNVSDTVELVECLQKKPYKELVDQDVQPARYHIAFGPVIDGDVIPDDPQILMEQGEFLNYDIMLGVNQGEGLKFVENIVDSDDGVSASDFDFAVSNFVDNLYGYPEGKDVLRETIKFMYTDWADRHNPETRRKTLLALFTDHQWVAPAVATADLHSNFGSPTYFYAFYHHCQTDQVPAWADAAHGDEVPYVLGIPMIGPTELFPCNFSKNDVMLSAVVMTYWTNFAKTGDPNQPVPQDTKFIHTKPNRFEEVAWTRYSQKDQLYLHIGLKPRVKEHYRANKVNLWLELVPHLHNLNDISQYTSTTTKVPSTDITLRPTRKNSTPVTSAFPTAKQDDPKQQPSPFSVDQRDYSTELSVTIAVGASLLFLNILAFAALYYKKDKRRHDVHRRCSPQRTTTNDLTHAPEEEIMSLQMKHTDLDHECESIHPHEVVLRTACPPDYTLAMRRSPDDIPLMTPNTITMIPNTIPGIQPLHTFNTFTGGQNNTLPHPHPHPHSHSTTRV

Turning to Neuroligin-1 (from UniProt Q99K10), the equilibrium dissociation constant (Kd) (in general, the equilibrium constant for the complex coming apart) is 700 nM. Further, for the setting “record 2”, the equilibrium dissociation constant (Kd) was 2600 nM.
Consider Neuroligin-4 (from UniProt Q8N0W4), for which the dissociation constant Kd was 2500 nM. For the same substance, the Kd (record 2) is 9700 nM.
